Measured values from patent US20260201039A1 (CENTESSA PHARMACEUTICALS UK, published 2026).

Columns and labels:
[1] = molecular target: T1, human/cyno recombinant CD28 protein (human (printed as human/cyno), UniProt P10747 19-152); test: ELISA on coated huCD28, corrected absorbance (A450-570 nm)
T1 construct: Bought recombinant protein; also called human recombinant CD28; human/cyno CD28
Method: (§1) For ELISA binding assays, 384 well or 96 well plates were coated with 1 ug/ml and incubated overnight at 4° C., protected from light. Plates were washed twice with PBS/0.05% Tween 20 before blocking with block buffer (3% milk protein in PBS) for 1 hour at room temperature. Next, test agent or controls were loaded and incubated for 1 hour at room temperature. Plates were then washed three times with PBS/0.05% Tween 20. Finally, HRP conjugated secondary antibody, diluted 1/5,000 in block buffer, was added and incubated for 1 hour at room temperature. Plates were again washed three times with PBS/0.05% Tween before addition of TMB substrate and incubation for 6 minutes at room temperature. Subsequently, the reaction was stopped with stop solution. Absorbance was read at 450 nm and 570 nm. Absorbance at 570 nm was subtracted from absorbance at 450 nm for each plate.
To assess the ability of undigested fully intact and MMP12 incubated proteins to interact with CD28, binding ELISAs to recombinant human CD28 domain were carried out. In parallel, purified IgG_001 and IgG_002 proteins were used as positive controls while isotype binding was used as negative control.

[2] = molecular target: human CD28 in its native form displayed on the cell surface (human, UniProt P10747 19-220); test: cell-based or functional assay
[3] = molecular target: T2, mouse CD28 recombinant protein (mouse, UniProt P31041 20-150, limits assumed); test: ELISA on coated mouse CD28, absorbance (blank corrected)
T2 construct: Bought recombinant protein
Method: as §1

[4] = molecular target: T2, mouse CD28 recombinant protein; test: SPR (Biacore 8K), CD28 captured on an anti-His surface, Fab as analyte
Method: (§2) In order to assess the binding of test Fabs to human or mouse CD28 (Acro Biosystems, Newark, USA), multi-cycle kinetic analysis was performed at 25° C. on a Biacore® 8K (serial no. 2724204) HBS-P+ (Cytiva, Marlborough, USA) supplemented with 0.1% BSA (Sigma, Dorset, UK) was used as running buffer as well as for ligand and analyte dilutions. CD28 proteins were diluted to 1.0 μg/mL in running buffer and at the start of each cycle loaded onto Fc2, of a series S CM5 chip (Cytiva, Marlborough, USA) previously coupled with an anti-His capture antibody (Cytiva, Marlborough, USA) using standard amine chemistry. Ligand was captured at a flow rate of 10 μl/min to give an immobilization level (RL) of ~60 RU. The surface was then allowed to stabilize. Multi-cycle kinetic data was obtained antigens as the analyte injected at a flow rate of 30 μl/min to try and minimize any potential mass transfer effects. A 9 point 2-fold dilution of purified Fab titrated from 0.39 nM to 100 nM was prepared in running buffer for Fab proteins. For each concentration, the association phases were monitored for 240 seconds, and the dissociation phase was measured for 900 seconds. […] Binding was analysed using 1:1 binding analysis due to the high affinity interaction between the antibody and antigen. The data was analysed using a procedure referred to as double referencing. […]

[5] = molecular target: T1, human/cyno recombinant CD28 protein; test: SPR (Biacore 8K, 25 C), CD28 captured by anti-His antibody, Fab as analyte, 1:1 fit; Fab_001 (CD28 TGN derived sequence)
Method: as §2

[6] = molecular target: T1, human/cyno recombinant CD28 protein; test: SPR (Biacore 8K), CD28 captured on an anti-His surface, Fab as analyte, multi-cycle kinetics, 1:1 fit
Method: In order to assess the binding of test Fabs to human or mouse CD28 (Acro Biosystems, Newark, USA), multi-cycle kinetic analysis was performed at 25° C. on a Biacore® 8K (serial no. 2724204) HBS-P+ (Cytiva, Marlborough, USA) supplemented with 0.1% BSA (Sigma, Dorset, UK) was used as running buffer as well as for ligand and analyte dilutions. CD28 proteins were diluted to 1.0 μg/mL in running buffer and at the start of each cycle loaded onto Fc2, of a series S CM5 chip (Cytiva, Marlborough, USA) previously coupled with an anti-His capture antibody (Cytiva, Marlborough, USA) using standard amine chemistry. Ligand was captured at a flow rate of 10 μl/min to give an immobilization level (RL) of ~60 RU. The surface was then allowed to stabilize. Multi-cycle kinetic data was obtained antigens as the analyte injected at a flow rate of 30 μl/min to try and minimize any potential mass transfer effects. A 9 point 2-fold dilution of purified Fab titrated from 0.39 nM to 100 nM was prepared in running buffer for Fab proteins. For each concentration, the association phases were monitored for 240 seconds, and the dissociation phase was measured for 900 seconds. Regeneration of the sensor chip surface was conducted between cycles using 10 mM glycine pH 2.1. Multiple repeats of a blank and of antigen were programmed into the kinetic run, in order to check the stability of both the surface and analyte over the kinetic cycles. The signal from the reference Fc1 (no ligand captured) was subtracted from that of Fc2 to correct for bulk effect and differences in non-specific binding to a reference surface. The signal from each blank run (ligand captured but no antigen) was subtracted to correct for differences in surface stability. Binding was analysed using 1:1 binding analysis due to the high affinity interaction between the antibody and antigen. The data was analysed using a procedure referred to as double referencing. This refers to the process of first subtracting the reference channel response (Fc1) and then subtracting the zero concentration sensorgram to compensate for bulk effects, baseline drift and small differences between the reference and the active channel.

[7] = molecular target: T1, human/cyno recombinant CD28 protein; test: SPR (Biacore 8K, 25 C), CD28 captured by anti-His antibody, Fab as analyte, 1:1 fit; Fab_002
Method: as §2

B1: LPD28-3, intact (bispecific antibody, human IgG1, kappa)
heavy: not shown
light: not shown
chain: SCPPCPAPEAAGAPSVFLFPPKPKDTLMISRTPEVTCVVVDVSHEDPEVKFNWYVDGVEVHNAKTKPREEQYNSTYRVVSVLTVLHQDWLNGKEYKCKVSNKALPAPIEKTISKAKGQPREPQVCTLPPSRDELTKNQVSLSCAVKGFYPSDIAVEWESNGQPENNYKTTPPVLDSDGSFFLVSKLTVDKSRWQQGNVFSCSVMHEALHNHYTQKSLSLSPGK
notes: Asymmetric one arm construct: anti-PD-L1 Fab above anti-CD28-2 Fab; also called undigested LPD28-3; LPD28-3 (0 min)
[1]
  binding result: binds

B2: IgG_001 (antibody, V domains shown)
VH: QVQLVQSGAEVKKPGASVKVSCKASGYTFTSYYIHWVRQAPGQGLEWIGSIYPGNVNTNYNEKEKDRATLTVDTSISTAYMELSRLRSDDTAVYFCTRSHYGLDWNFDVWGQGTTVTVSS
VL: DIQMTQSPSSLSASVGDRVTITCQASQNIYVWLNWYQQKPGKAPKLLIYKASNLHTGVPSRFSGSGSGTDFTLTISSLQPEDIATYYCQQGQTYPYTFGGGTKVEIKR
notes: also called TGN derived CD28 V domain IgG_001 on IgG1-Fc isotype
[2]
  mean IL2 secretion, PBMC of 20 donors on plate-coated protein, 72 h: ~2000 pg/mL
[3]
  binding result: no binding (tested: about 300 nM)

B3: Anti-CD28 Fab-001 (Fab, V domains shown)
VH: QVQLVQSGAEVKKPGASVKVSCKASGYTFTSYYIHWVRQAPGQGLEWIGSIYPGNVNTNYNEKEKDRATLTVDTSISTAYMELSRLRSDDTAVYFCTRSHYGLDWNFDVWGQGTTVTVSS
VL: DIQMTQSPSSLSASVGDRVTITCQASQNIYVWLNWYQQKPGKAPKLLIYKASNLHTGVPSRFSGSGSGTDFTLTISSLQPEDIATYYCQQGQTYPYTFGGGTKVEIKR
notes: Monovalent Fab
[4]
  binding result: no binding
[5]
  Kd: 590 pM
[6]
  Kd: 593 pM
  koff: 0.00027 s⁻¹
  kon: 455000 M⁻¹ s⁻¹

B4: Fab_002 (Fab, V domains shown)
VH: QVQLQQSGAELKKPGASVKVSCKASGYTFTEYIIHWIKLRSGQGLEWIGWFYPGSNDIQYNAQFKGKATLTADKSSSTVYMELTGLTPEDSAVYFCARRDDFSGYDALPYWGQGTLVTVSA
VL: DIQMTQSPSSLSASVGDRVTITCKTNENIYSNLAWYQQKDGKSPQLLIYAATHLVEGVPSRFSGSGSGTQYSLTISSLQPEDFGNYYCQHFWGTPCTFGGGTKLEIKR
notes: also called Anti-CD28-2 Fab
[4]
  binding result: no binding
[6]
  Kd: 532 pM
  koff: 0.000241 s⁻¹
  kon: 454000 M⁻¹ s⁻¹
[7]
  Kd: 530 pM

B5: IgG_002 (antibody, V domains shown)
VH: QVQLQQSGAELKKPGASVKVSCKASGYTFTEYIIHWIKLRSGQGLEWIGWFYPGSNDIQYNAQFKGKATLTADKSSSTVYMELTGLTPEDSAVYFCARRDDFSGYDALPYWGQGTLVTVSA
VL: DIQMTQSPSSLSASVGDRVTITCKTNENIYSNLAWYQQKDGKSPQLLIYAATHLVEGVPSRFSGSGSGTQYSLTISSLQPEDFGNYYCQHFWGTPCTFGGGTKLEIKR
notes: also called non superagonist CD28 IgG
[3]
  binding result: no binding (tested: about 300 nM)
